Measured values: publication PMC8643683, “Loss of full-length hnRNP R isoform impairs DNA damage response in motoneurons by inhibiting Yb1 recruitment to chromatin” (Nucleic Acids Research, 2021)

Biological target: T1, Y-box binding protein 1 (Yb1), endogenous mouse (mouse (endogenous in primary mouse …, UniProt P62960 1-322))
T1 construct: also called Msy1; source: endogenous, primary mouse motoneuron lysate; endogenous, NSC-34 lysate
Experiment: co-IP; Yb1 (sc-101198) or γ-H2AX (clone JBW301) immunoprecipitated on protein A or G Dynabeads from whole lysates of NSC-34 cells, 0 Gy or 9 Gy; IP lysis buffer (50 mM Tris-HCl pH 7.4, 140 mM NaCl, 1% Triton X-100) with 1 U Benzonase, overnight at 4°C; western blot
Conditions: partners not purified

T1 sequence (P62960 whole entry): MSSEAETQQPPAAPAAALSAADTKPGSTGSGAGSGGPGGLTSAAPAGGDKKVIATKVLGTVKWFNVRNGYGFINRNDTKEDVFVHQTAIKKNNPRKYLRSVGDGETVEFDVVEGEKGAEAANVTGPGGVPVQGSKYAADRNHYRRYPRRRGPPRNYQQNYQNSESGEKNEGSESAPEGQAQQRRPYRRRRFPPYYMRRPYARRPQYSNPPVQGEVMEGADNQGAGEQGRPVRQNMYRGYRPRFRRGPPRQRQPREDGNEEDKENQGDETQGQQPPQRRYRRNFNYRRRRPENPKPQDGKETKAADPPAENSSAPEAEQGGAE

B1: hnRNP R-FL (full-length hnRNP R isoform), endogenous (natural protein, mouse (endogenous in NSC-34), UniProt Q8VHM5 1-632, looked up)
chain: MANQVNGNAVQLKEEEEPMDTSSVTHTEHYKTLIEAGLPQKVAERLDEIFQTGLVAYVDLDERAIDALREFNEEGALSVLQQFKESDLSHVQNKSAFLCGVMKTYRQREKQGSKVQESTKGPDEAKIKALLERTGYTLDVTTGQRKYGGPPPDSVYSGVQPGIGTEVFVGKIPRDLYEDELVPLFEKAGPIWDLRLMMDPLSGQNRGYAFITFCGKEAAQEAVKLCDSYEIRPGKHLGVCISVANNRLFVGSIPKNKTKENILEEFSKVTEGLVDVILYHQPDDKKKNRGFCFLEYEDHKSAAQARRRLMSGKVKVWGNVVTVEWADPVEEPDPEVMAKVKVLFVRNLATTVTEEILEKSFSEFGKLERVKKLKDYAFVHFEDRGAAVKAMDEMNGKEIEGEEIEIVLAKPPDKKRKERQAARQASRSTAYEDYYYHPPPRMPPPMRGRGRGGRGGYGYPPDYYGYEDYYDDYYGYDYHDYRGGYEDPYYGYDDGYAVRGRGGGRGGRGAPPPPRGRGAPPPRGRAGYSQRGAPLGPPRGSRGGRGGPAQQQRGRGSRGARGNRGGNVGGKRKADGYNQPDSKRRQTNNQQNWGSQPIAQQPLQQGGDYSGNYGYNNDNQEFYQDTYGQQWK
notes: hnRNP R, mouse, full-length 632-amino acid protein encoded by transcript variant 1, translated from the AUG in exon 2; source: endogenous, NSC-34 lysate
With B1 the “fold preference of co-precipitation with Yb1 over hnRNP R-ΔN” value was 1.7 fold.
